# Measurements as given in the nanobody polyreactivity screen of Harvey et al. (2022).
# Assay: yeast display, Sf9 membrane polyspecificity reagent, FACS + sequencing; frameworks hold sequencing errors
# In short: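 Using colony PCR, genes from sorted yeast display clones were amplified, then sequenced on MiSeq at 2 × 250 and filtered by CDR length. The clones had been stained with 10% biotinylated, detergent-solubilized Sf9 membrane reagent for 1 hour at 4 °C and sorted by FACS into low and high (top ~1%) gates on anti-HA and streptavidin fluorescence. Polyreactivity labels come from the gate of origin.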
row,Sequence,polyreactivity (PSR sort gate)
1,QVQLVESGGGLVQAGGSLRLSCAASGNTLSFYTMGWYRQAPGKERELVAAISSDGTTYYADSVKGRFTISRDNAKNTVYLQMNSLKPEDTAVYYCAKAHYEWIWTRYDYWGQGTQVTVSS,low polyreactivity
2,QVQLVESGGGLVQAGGSLRLSCAASGRIFFYAMGWYRQAPGKERELVASITTSGTSTYYADSVKGRFTISRDNAKNTVYLQMNSLKPEDTAVYYCNARVRYTVGPLSSLDGEYWGQGTQVTVSS,low polyreactivity
3,QVQLVESGGGLVQAGGSLRLSCAASGLIFAVYAMGWYRQAPGKERELVAGISASAASTYYADSVKGRFTISRDNAKNTVYLQMNSLKPEDTAVYYCAADFYWFWTYGTLWYGYEYWGQGTQVTVSS,high polyreactivity
4,QVQLVESGRGLVQAGGSLRLSCAASGFMIGINAMGWYRQAPGKERELVDAISTGDRTNYAHSVKGRFTISRDNAKNTVYLQMNSLKPEDTAVYYCAKDWRRNRPYEWTYDYWGQGTQVTVSS,low polyreactivity
5,QVQLVESGGGLVQAGGSLRLSCAASGSTFLKYTMGWYRQAPGKDRELVAGITRSSGSTYYADSVKGRFTISRDNAKNTVYLHMNSLKPEDTAVYYCAATVYLYTDLAYYWYGYWGQGTQVTVAS,high polyreactivity
6,QVQIEESGGGLVQAGGSLRLSCAASGSIFGKYAMGWYRQAPGKERELVAAITWSGGYTRYADSGKGRFTISRDKAKNTVYLLMNSLKPEDTAVYYCADPSTESKYYYWGQGTQVTVSS,high polyreactivity
7,QVQLVESGGRLVQAGGSLRLSCAASGFIFSRYAMGWSRQAPGKERELVAAISRGGSTNYADSVMGRFTISRDNAKNTVYLQMNSLKPEDTAVYYCAVRQIVRYYYWGQGTQVTVSS,high polyreactivity
8,QVQLVESGGGLVQAGGSLRLSCAASGRIFDRNAMGWYRQAPGKERELVAAITRSGGRPYYADSVKGRFTISRDNAKNTVYLQMNSLKPEDTAVYYCNRGYPRSVVHYNSWGQGTQVTVSS,high polyreactivity
9,QVQLVESGGGLVQAGGSLRLSCAASGSIFYRYAMGWYRQAPGKERELVAAISSNGVSTYYADSVKGRFTISRDNAKNTVYLQMNSLKPEDTAVYCCARDVYASPRLYTSRYNYWGQGTQVTVSS,low polyreactivity
10,QVQLVESGGGLVQAGGSLRLSCAASGSIFRSYAMGWYRQAPGKERELVAAITSSSGSTYYADSVKGRFTISRDNAKNTVYLQMNSLKPEDTAVYYCNAPYWKSRFRAYYHWGQGTQVTVSS,high polyreactivity
11,QVQLVESGGGLVQAGGSLRLSCAASGSTFQTYAMGWYRQAPGKERELVAAISRRSGSTYYADSVKGRFTISRDNAKNTVYLQMNSLKPEDTAVYYCAARYVSRRFLGYYYWGQGTQVTVSS,high polyreactivity
12,QVQLVESGGGLVQAGGSLRLSCAASGSIFQSNAMGWYRQAPGKERELFAAISWNTGSTYADSVKGRFTISRDNAKNTVYLQMNSLKPEDTAVYYCAADRSHAYYRKNRVDYWGQGTQVTVSS,low polyreactivity
13,QVQLVESGGGLVQAGGSLRLSCAASGIIFLKYAMGWYRQAPGKERELVAAISRSGGGTYYADSVKGRFTISRDNAKNTVYLQMNSLKLEDTAVYYCAARGVDRQGYRFYYWGQGTQVTVSS,high polyreactivity
14,QVQLVESGGGLVQAGGSLRLICAASGRNFTKYAMGLYRQAPGKERELVAAINFRGDRTYYADSVKGRYTISRDNAKNTVYLQMNSLKPEDTAVYYCAAEWSTYWLFNYEYWGQGTQVTVSS,high polyreactivity
15,QVQLQESGGVQVQAGGSLRLSCAASGYISTHYFMGWYRQAPGKDREFVAGISNGSITNYADSVKGRFTISRDNARNTVYLQMNSLKPEDTAVYYGAAYEWTYVRFGYWGQGTLVTVSS,high polyreactivity
16,QVQLVESGGGLVQAGGSLRLSCAASGRTFSVNDMGWYRQAPGKERELVAAISFSGGSTYYADSVKGRFTISRDNAKNTVYLQMNSLKPEDTAVYYCASEAYPSWFYVITGFGIYDYWGQGTQVTVSS,high polyreactivity
17,QVQLVESGGGLVQAGGSLRLSCAASGITFLPTAMGWYRQAPGKERELVAAITWRGGSTYYADAVKGRFTISRDHAKNTVYLQMNSLKREDTAVYYCGATGWQYVYYNYLWLKGGYWGQGTQVSVSS,high polyreactivity
18,QVQLVESGGGLVQAGGSLRLSCSASGTTFRYNAMGRYRQAPGKERQLVAAITSGGTTNYADSVKGRFTISRDNAKNTVYLQMNSLKPEDTAVYYCAKKRPGFLRYGSIGEFQYDYWGQGTQVTVSS,low polyreactivity
19,QVQLVESGGGLVQAGGSLRLSCAASGSIFVGNAMGWYRPAPGKERELVAAISSSGGSTYYADSVKGRFTISRDNAKNTVYLQMNSLKPEDTAVYYCAADIFSPAFDYWGQGTQVTVSS,low polyreactivity
20,QVQLVESGVGLVQAGGSLRLSCAASGFTIYRYAMGWYRQAPGKERELVAAISRGVNTNYADSVKGRFTISRDNAKNTVYLQMNSLKPEETAVYDCAARYDNPSYRTTYGFWGQGTQVTLSS,high polyreactivity

row,Sequence,polyreactivity (PSR sort gate)
1,QLQLVESGGGLVQAGGSLRLSCAASGSTFSPYAMGWYRQAPGKERDLVAGITSSGGDTYYADSVKGRFTISRDNAKNTVYLQMNSLKPEDSAVYYCAADWWVLGQLWFDYWGQGTQVTVSS,low polyreactivity
2,QVQLVESGGGLVQAGGSLRLSCAASGSTFGYNAMGWYRQAPGKERELVAASSRSGGRTYYADSVKGRFTISRDNAKNTVYLQMNSLKPEDTAVYYCATYYTNKVPARYYWGQGTQVTVSS,high polyreactivity
3,QVQLVESGGGLVQAGGSLRLSCAASGNIIYQNAKGLYRQAPGKERELVAAITGRGSSTYYADSVKGRFTISRDNAKNTVYLQMNSMKPEDTAVYYCAADTTPYDGYYGHGYWGQGTQVTVSS,low polyreactivity
4,QVQLVESGGGLVQAGGSLRLSCAASGRIFRYYAMGWYRQAPGKERELVAGISWRGSSTYYADSVKGRFTISRDNAKNTVYLQMNSLKPADTAVYYCNRDLSIIPVTGGRFYYWGQGTQVTVSS,high polyreactivity
5,QVQLVESGGGLVQAGGSLRLSCAASGFTFVSNAMGWYRQAPGKERELVAAITYSGTRTYYADSVKGRFTISRDNAKNTVYLQMNSLKPEDTAVYYCAARRGYASAYYYWGQGTQVTVSS,high polyreactivity
6,QVQLVESGGGLVQAGGSLRLSCAASGSIFSINAMGWYRQAPGKERELVAAISWSGGSTYYADSVKGRFTISRDNAKNTVYLQMNSLKPEDTAVYYCNAEEDEYGELDYWGLGTQVTVSS,low polyreactivity
7,QVQLVESGGGLVQAGGRLRLSCAASGFIYRPYLMGWYRQATGKEMEFVAAISGRGGSTYYADSVKGRFTISRDNAKKTVYLQMNSLKPEDTAVYYCNAVYIYTGVGYNYWGQGTQVTVSS,high polyreactivity
8,QGQLVESGGGLVQAGGSLRLSCAASGSIVFYYGMGWYRQAPGKERELVAAITWSGDSPYDADSVKGRFTISRDNAKNTVYLQLNSLKPEDTAVYYCNADQTSYYYPGNYDYWGQGTQVTVSS,high polyreactivity
9,QVQLVESGGGLVQAGGSLRLSCAASGITFPGYAMGWYTQAPGKERELVAVIRKSGTSTYYADSVKGRFTISRDNAKNTVYLQMNSLKPEDTAVYYCAAGGPSTLDDYWGQGTQVTVSS,low polyreactivity
10,QVQLVESGAGLVHAGGSLRLSCAASGRTFSSNAMGGYRQAPGKERELVAGITWGGGSTYYADSVKGRFTISRDNAKNTVYLQMYSLKPEDTAVYYCAKSAGKRGYQVDYWVQGTQVTVSS,high polyreactivity
11,QVQLVESGGGLVQAGGSLRLSCAASGRIFRVNTMGWYRQAPGKERELVAAISTSGGTTYYADSVKGRFTISRDNAKNTVYIQLNSLKPEDTAVYYCNASYLTRRDGYIEDAIYDYWGQGTQVTVSS,low polyreactivity
12,QVQLVESGGGLVQAGGSLRLSCAASGRIFRSYAMGWYRQAPGKERELVAAITSGGSTNYADSVKGRFTISRDNAKNTVYLQMNSLKPEDTAVYYCNADRWKSGYWRYDYWGQGTQVTVSS,low polyreactivity
13,QVQLVESGGGLVQAGGSLRLSCAASGRILYYYAMGWYRQAPGKERELVAAITSGGSTYADSVKGRFTISRDNAKNTVYLQMNSLKPEDTAVYYCNARPVYGSRFYSAVRMEYWGQGTQVTVSS,low polyreactivity
14,QVQLVESGGGLVQAGGSLRLSCAASGIIFATNSMGWYRQAPGKERELVAAITSDSTNYADSVKGRFTISRDNAKNTVYLQMNSLKAEDTAVYYCAADLITDYEESDYWGQGTQVTVSS,low polyreactivity
15,QVQLVQSGGGLVQAGGSLRLSCAASGSTFSQYVMGWYRQARGKERELVAAINKNGGRTYYADSVKGRFTISRDNAKNTVYFQMISLKPEDTAVYYCAADVYGQDDYWGQGTQVTVSS,high polyreactivity
16,QVQLVESGGGLVQAGGSLRLSCAASGITFVFYTMGWYRQAPGKETELVAAISRSGASTYYADSVKGRFTISRDNAKNTVYLQMNSLKPEDTAVYYCAADRGYRFRMDYWGQGTQVTVST,high polyreactivity
17,QVQLVESGGGLVQAGGSLRLSCAASGSIFAYYAMGWYRQAPGKERELVAAISRSGVSTYYADSVKGRFTISRDNAKNTVYLQMNSLKPEDTAVYYCAARWRSGFTSGDYWGQGTQVTVSS,low polyreactivity
18,QVQLVESGGGLVQAGGSLRLSCAASGFIFDSYAMGWYRQAPGKERELVAAISWSGGRTYYADSVKGRFTISRDNAKNTVFLQMNSLKPEDSAVYYCAADTWFGMDYWGQGTEVTVSS,high polyreactivity
19,QVQLVESGGGLVQAGGSLRLSCAASGYYAMGWYRQAPGKERELVPAITWSGGTTYYADSVKGRFTISRDNAKNTVYLQMNSLKPEDTAVYYCNADFVRYTRHKKYYYWGQGTQVTVSS,low polyreactivity
20,QVPLVESGGGLVQAGGSLRLSCAASGSIFNIYALGWYRPAPGKVWELVAGISWDSGSTFYADSVKGRVTISRDNAKNTVYLQMNSLKPEDTAGYYCNVVYETYCDEFDYWGQGTQVTVSS,high polyreactivity
